Assays:
[1] = molecular target: T1, human FcγRIIIb (NA1) CD16B (human, UniProt O75015); test: SPR
T1 chain: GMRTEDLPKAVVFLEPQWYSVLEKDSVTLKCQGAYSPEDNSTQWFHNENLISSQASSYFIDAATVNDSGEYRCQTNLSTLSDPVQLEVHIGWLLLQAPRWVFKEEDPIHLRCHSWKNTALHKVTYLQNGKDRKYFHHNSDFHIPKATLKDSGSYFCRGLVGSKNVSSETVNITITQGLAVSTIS

human FcγRIIc (CD32C) = molecular target: T2, human FcγRIIc (CD32C) (human, UniProt P31995); test: SPR
T2 chain: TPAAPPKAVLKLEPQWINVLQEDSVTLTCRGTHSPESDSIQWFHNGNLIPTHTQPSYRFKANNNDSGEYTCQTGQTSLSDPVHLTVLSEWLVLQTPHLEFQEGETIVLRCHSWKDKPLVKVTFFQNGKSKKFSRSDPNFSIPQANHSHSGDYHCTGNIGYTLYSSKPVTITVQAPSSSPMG

murine FcγRIIb = molecular target: T3, murine FcγRIIb (mouse, UniProt P08101); test: SPR
T3 chain: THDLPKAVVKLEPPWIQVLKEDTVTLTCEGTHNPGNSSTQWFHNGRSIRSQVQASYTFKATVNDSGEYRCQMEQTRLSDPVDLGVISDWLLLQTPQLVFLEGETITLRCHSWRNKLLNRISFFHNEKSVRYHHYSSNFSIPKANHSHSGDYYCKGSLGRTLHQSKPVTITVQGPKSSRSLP

[2] = molecular target: T4, cynomolgus FcγRIIa (CD32A) (cynomolgus); test: SPR
T4 chain: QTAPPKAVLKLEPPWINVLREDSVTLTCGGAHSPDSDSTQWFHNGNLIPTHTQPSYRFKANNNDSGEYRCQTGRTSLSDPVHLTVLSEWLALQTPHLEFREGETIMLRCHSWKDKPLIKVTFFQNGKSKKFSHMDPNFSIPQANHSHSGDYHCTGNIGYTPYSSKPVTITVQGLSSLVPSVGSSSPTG

human FcγRIIb (CD32B) = molecular target: T5, human FcγRIIb (CD32B) (human, UniProt P31994); test: SPR
T5 chain: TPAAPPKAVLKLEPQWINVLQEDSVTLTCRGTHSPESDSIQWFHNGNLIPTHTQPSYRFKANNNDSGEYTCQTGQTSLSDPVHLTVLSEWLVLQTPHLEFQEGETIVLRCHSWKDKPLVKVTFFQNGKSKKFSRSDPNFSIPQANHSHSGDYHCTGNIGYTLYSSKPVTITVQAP

murine FcγRI = molecular target: T6, murine FcγRI (mouse, UniProt P26151); test: SPR
T6 chain: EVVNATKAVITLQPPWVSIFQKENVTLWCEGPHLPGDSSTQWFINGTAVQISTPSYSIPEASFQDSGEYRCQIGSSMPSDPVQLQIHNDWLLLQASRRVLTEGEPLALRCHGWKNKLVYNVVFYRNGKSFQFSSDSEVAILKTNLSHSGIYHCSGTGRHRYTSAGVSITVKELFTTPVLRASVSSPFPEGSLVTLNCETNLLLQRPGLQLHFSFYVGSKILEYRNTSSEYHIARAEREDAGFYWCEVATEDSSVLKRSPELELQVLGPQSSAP

human FcγRIIa (CD32A) = molecular target: T7, human FcγRIIa (CD32A) (human, UniProt P12318); test: SPR
T7 chain: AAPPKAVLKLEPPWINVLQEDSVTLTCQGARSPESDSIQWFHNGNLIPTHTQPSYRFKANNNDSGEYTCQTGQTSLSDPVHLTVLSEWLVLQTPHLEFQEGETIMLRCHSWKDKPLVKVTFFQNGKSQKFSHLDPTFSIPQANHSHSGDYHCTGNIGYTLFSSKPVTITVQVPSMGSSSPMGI

murine FcγRIV (CD16-2) = molecular target: T8, murine FcγRIV (CD16-2) (mouse, UniProt A0A0B4J1G0); test: SPR
T8 chain: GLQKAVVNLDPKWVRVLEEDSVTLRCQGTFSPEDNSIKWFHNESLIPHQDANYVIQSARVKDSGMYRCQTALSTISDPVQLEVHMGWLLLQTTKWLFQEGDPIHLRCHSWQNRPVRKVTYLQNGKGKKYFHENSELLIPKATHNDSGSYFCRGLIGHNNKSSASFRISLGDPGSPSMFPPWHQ

human FcγRI (CD64) = molecular target: T9, human FcγRI (CD64) (human, UniProt P12314); test: SPR
T9 chain: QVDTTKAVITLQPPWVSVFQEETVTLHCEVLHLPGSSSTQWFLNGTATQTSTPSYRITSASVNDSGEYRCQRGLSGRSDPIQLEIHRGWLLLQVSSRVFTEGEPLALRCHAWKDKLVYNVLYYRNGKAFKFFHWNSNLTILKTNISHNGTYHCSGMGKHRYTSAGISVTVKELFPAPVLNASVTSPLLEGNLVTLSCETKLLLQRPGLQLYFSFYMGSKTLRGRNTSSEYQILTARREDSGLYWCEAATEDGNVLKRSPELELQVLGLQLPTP

murine FcγRIII = molecular target: T10, murine FcγRIII (mouse, UniProt P08508); test: SPR
T10 chain: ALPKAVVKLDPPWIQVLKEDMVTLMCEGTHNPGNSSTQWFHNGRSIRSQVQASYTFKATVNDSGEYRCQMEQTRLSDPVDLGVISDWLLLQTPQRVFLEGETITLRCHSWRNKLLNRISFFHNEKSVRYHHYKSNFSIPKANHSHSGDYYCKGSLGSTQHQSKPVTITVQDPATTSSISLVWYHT

murine FcRn = molecular target: T11, murine FcRn (mouse, UniProt Q61559); test: SPR, pH 6.0
T11 chain 1: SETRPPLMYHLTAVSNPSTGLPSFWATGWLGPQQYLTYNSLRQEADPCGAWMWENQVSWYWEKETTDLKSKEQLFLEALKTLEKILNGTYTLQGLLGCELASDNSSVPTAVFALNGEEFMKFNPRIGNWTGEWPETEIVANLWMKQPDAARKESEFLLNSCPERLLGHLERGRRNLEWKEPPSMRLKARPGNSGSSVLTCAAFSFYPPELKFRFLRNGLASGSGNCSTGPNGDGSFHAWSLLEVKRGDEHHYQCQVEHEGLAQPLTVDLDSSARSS
T11 chain 2: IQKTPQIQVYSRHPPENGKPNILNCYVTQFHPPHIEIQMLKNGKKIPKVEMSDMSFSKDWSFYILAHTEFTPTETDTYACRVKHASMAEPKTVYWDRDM

human FcRn = human FcRn (human, UniProt P55899); test: SPR, pH 6.0
cynomolgus FcRn = molecular target: T12, cynomolgus FcRn (cynomolgus, UniProt Q8SPV9); test: SPR, pH 6.0
T12 chain 1: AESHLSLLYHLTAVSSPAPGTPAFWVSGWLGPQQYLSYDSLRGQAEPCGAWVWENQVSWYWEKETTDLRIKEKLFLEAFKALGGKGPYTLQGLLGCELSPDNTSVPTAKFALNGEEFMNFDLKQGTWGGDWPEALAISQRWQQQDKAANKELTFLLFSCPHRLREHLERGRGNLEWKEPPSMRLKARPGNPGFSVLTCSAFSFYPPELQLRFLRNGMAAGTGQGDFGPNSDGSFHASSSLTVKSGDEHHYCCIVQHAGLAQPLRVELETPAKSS
T12 chain 2: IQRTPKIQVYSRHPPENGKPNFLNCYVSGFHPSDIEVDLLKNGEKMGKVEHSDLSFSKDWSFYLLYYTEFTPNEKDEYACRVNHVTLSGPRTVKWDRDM

binding result [1]: no binding | binding result (human FcγRIIc (CD32C)): no binding | binding result (murine FcγRIIb): no binding | binding result [2]: no binding | binding result (human FcγRIIb (CD32B)): no binding | binding result (murine FcγRI): no binding | binding result (human FcγRIIa (CD32A)): no binding | binding result (murine FcγRIV (CD16-2)): no binding | binding result (human FcγRI (CD64)): no binding | binding result (murine FcγRIII): no binding | Kd (murine FcRn): 121 nM | Kd (human FcRn): 410 nM | Kd (cynomolgus FcRn): 268 nM
B1: Bi-scFv-Fc_02 (full) (antibody)
chain 1: SYVLTQPSSVSVAPGQTATISCGGHNIGSKNVHWYQQRPGQSPVLVIYQDNKRPSGIPERFSGSNSGNTATLTISGTQAMDEADYYCQVWDNYSVLFGGGTKLTVLGGSGGSGGSGGSGGSGGSGGSQVQLVQSGAEVKKPGESLKVSCKASGYTFTSYYMHWVRQAPGQGLEWMGIINPSGGSTSYAQKFQGRVTMTRDTSTSTVYMELSSLRSEDTAVYYCARGSAYYYDFADYWGQGTLVTVSSEPKSCDKTHTCPPCPAPEFEGGPSVFLFPPKPKDTLMISRTPEVTCVVVAVSHEDPEVKFNWYVDGVEVHNAKTKPREEQYNSTYRVVSVLTVLHQDWLNGKEYKCKVSNKALPAPIEKTISKAKGQPREPQVYTLPPSREEMTKNQVSLTCLVKGFYPSDIAVEWESNGQPENNYKTTPPVLDSDGSFFLYSKLTVDKSRWQQGNVFSCSVMHEALHNHYTQKSLSLSPGGGGGSGGGGSQVQLQESGPGLVKPSETLSLTCTVSGGSVSSGSYYWSWIRQPPGKGLEWIGYIYYSGSTNYNPSLKSRVTISVDTSKNQFSLKLSSVTAADTAVYYCARNPISIPAFDIWGQGTMVTVSSGGSGGSGGSGGSGGSGGSQPVLTQPPSVSVAPGKTARITCGGNNIGSKSVHWYQQKPGQAPVLVIYYDSDRPSGIPERFSGSNSGNTATLTISRVEAGDEADYYCQVWDTSSDHVLFGGGTKLTVL
chain 2: SYVLTQPSSVSVAPGQTATISCGGHNIGSKNVHWYQQRPGQSPVLVIYQDNKRPSGIPERFSGSNSGNTATLTISGTQAMDEADYYCQVWDNYSVLFGGGTKLTVLGGSGGSGGSGGSGGSGGSGGSQVQLVQSGAEVKKPGESLKVSCKASGYTFTSYYMHWVRQAPGQGLEWMGIINPSGGSTSYAQKFQGRVTMTRDTSTSTVYMELSSLRSEDTAVYYCARGSAYYYDFADYWGQGTLVTVSSEPKSCDKTHTCPPCPAPEFEGGPSVFLFPPKPKDTLMISRTPEVTCVVVAVSHEDPEVKFNWYVDGVEVHNAKTKPREEQYNSTYRVVSVLTVLHQDWLNGKEYKCKVSNKALPAPIEKTISKAKGQPREPQVYTLPPSREEMTKNQVSLTCLVKGFYPSDIAVEWESNGQPENNYKTTPPVLDSDGSFFLYSKLTVDKSRWQQGNVFSCSVMHEALHNHYTQKSLSLSPGGGGGSGGGGSQVQLQESGPGLVKPSETLSLTCTVSGGSVSSGSYYWSWIRQPPGKGLEWIGYIYYSGSTNYNPSLKSRVTISVDTSKNQFSLKLSSVTAADTAVYYCARNPISIPAFDIWGQGTMVTVSSGGSGGSGGSGGSGGSGGSQPVLTQPPSVSVAPGKTARITCGGNNIGSKSVHWYQQKPGQAPVLVIYYDSDRPSGIPERFSGSNSGNTATLTISRVEAGDEADYYCQVWDTSSDHVLFGGGTKLTVL
